Molecular target: cell surface of 293 AAV cells (human)
Experiment: cell binding on ice for 1 h at 200000 TU/cell; unbound particles recovered from the medium and titrated on TG1 E. coli by colony counting; relative to control

| Substance | binding efficiency (percentage of vectors bound to the cell surface) |
| --- | --- |
| RGD.PAAV vector (phagemid/AAV particle displaying the RGD4C targeting peptide on the pIII minor coat protein) | 58.2% |
| M13.PAAV vector (non-targeted phagemid/AAV particle lacking RGD4C) (from UniProt P69168 19-424) | 7.1% |

From patent US20180320200A1
